According to the supplement of paper PMC12338614:
± gives the uncertainty stated by the source.

B1: library; numbered along this chain (parent)
chain: MEVVDPQQLGMFTEGELMSVGMDTFIHRIDSTEVIYQPRRKRAKLIGKYLMGDLLGEGSYGKVKEVLDSETLCRRAVKILKKKKLRRIPNGEANVKKEIQLLRRLRHKNVIQLVDVLYNEEKQKMYMVMEYCVCGMQEMLDSVPEKRFPVCQAHGYFCQLIDGLEYLHSQGIVHKDIKPGNLLLTTGGTLKISDLGVAEALHPFAADDTCRTSQGSPAFQPPEIANGLDTFSGFKVDIWSAGVTLYNITTGLYPFEGDNIYKLFENIGKGSYAIPGDCGPPLSDLLKGMLEYEPAKRFSIRQIRQHSWFRKKHPPAEAPVPIPPSPDTKDRWRSMTVVPYLEDLHGADEDEDLFDIEDDIIYTQDFTVPGQVPEEEASHNGQRRGLPKAVCMNGTEAAQLSTKSRAEGRAPNPARKACSASSKIRRLSACKQQ

Variants of: B1
Assay: STK11 functional score (HeLa growth suppression), rescaled enrichment; synonymous median = 1, nonsense median = 0 (normalised score)
Conditions: with HeLa; variant type: missense
Procedure, shortened: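 The functional score takes the post/pre-selection log ratio, corrects it to wild type, rescales it to synonymous and nonsense medians, and merges it over codons and replicate transfections, with error from bootstrapping. Counts came from tiled gDNA amplicons sequenced on NextSeq (~2 million reads per tile). The libraries were POPCode codon-randomised, codon-optimised STK11 integrated by Bxb1 at an AAVS1 landing pad in HeLa, three regions with three transfections each.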

| Variant | STK11 functional score |
| --- | --- |
| L113P | 0.54 ± 0.081 |
| L113C | 1.16 ± 0.54 |
| L113H | 0.781 ± 0.24 |
| K78Q | 1.1 ± 0.12 |
| P217A | 1.25 ± 0.66 |
| P217F | 1.45 ± 0.12 |
| C278G | 1.08 ± 0.34 |
| I267W | 0.777 ± 0.086 |
| S419V | 0.892 ± 0.23 |
| H27W | 0.807 ± 0.27 |
| H27P | 1.35 ± 0.35 |
| K108L | 1.1 ± 0.15 |
| K108T | 1.33 ± 0.28 |
| D30P | 1.67 ± 0.17 |
| D30T | 1.62 ± 0.21 |
| L285W | -0.0646 ± 0.056 |
| L285G | -0.0815 ± 0.1 |
| G242A | 0.823 ± 0.13 |
| G276W | 1.36 ± 0.15 |
| G276D | 1.33 ± 0.75 |
| I88W | 0.401 ± 0.49 |
| I88E | 1.53 ± 0.18 |
| D350H | 1.27 ± 0.29 |
| D350I | 1.25 ± 0.2 |

| Variant | STK11 functional score |
| --- | --- |
| G10L | 1.63 ± 0.21 |
| L17D | 1.7 ± 0.12 |
| L17R | 1.22 ± 0.26 |
| A153V | 0.499 ± 0.1 |
| S325T | 1.17 ± 0.36 |
| K416W | 0.693 ± 0.27 |
| K416V | 1.39 ± 0.36 |
| S428L | 0.874 ± 0.14 |
| I111F | 0.365 ± 0.45 |
| H202L | 0.766 ± 0.12 |
| G215Q | 0.0889 ± 0.12 |
| D208I | 1.31 ± 0.36 |
| K41L | 1.27 ± 0.24 |
| K97S | 0.724 ± 0.17 |
| I79C | 0.264 ± 0.28 |
| I79V | 0.313 ± 0.085 |
| I161M | 1.31 ± 0.26 |
| I161S | -0.0934 ± 0.18 |
| D327A | 1.28 ± 0.52 |
| R331H | -0.127 ± 0.098 |
| R331E | 1.12 ± 0.55 |
| E130C | 0.373 ± 0.08 |
| E349I | 1.05 ± 0.55 |
| E349W | 1.14 ± 0.5 |

| Variant | STK11 functional score |
| --- | --- |
| Y131G | 0.769 ± 0.28 |
| Y131Q | -0.0871 ± 0.078 |
| K178G | 0.325 ± 0.098 |
| S69A | 1.14 ± 0.16 |
| S69H | 0.304 ± 0.095 |
| R103I | 1 ± 0.15 |
| R103C | 1.05 ± 0.22 |
| D229K | 0.652 ± 0.23 |
| S307P | 1.57 ± 0.27 |
| G58M | 0.219 ± 0.094 |
| G58S | 0.988 ± 0.36 |
| Y118L | 0.633 ± 0.1 |
| P387I | 1.54 ± 0.17 |
| P387L | 1.02 ± 0.3 |
| P387D | 1.56 ± 0.24 |
| Y246P | -0.0491 ± 0.1 |
| V243L | 0.714 ± 0.13 |
| V243H | -0.00535 ± 0.12 |
| R147C | 1.26 ± 0.076 |
| A410W | 1.68 ± 0.24 |
| I46L | 1.25 ± 0.14 |
| S19W | 1.43 ± 0.4 |
| L140K | 1.06 ± 0.089 |
| A273K | 0.589 ± 0.23 |

| Variant | STK11 functional score |
| --- | --- |
| F148A | 0.105 ± 0.081 |
| F148V | 0.674 ± 0.14 |
| H174F | 0.138 ± 0.044 |
| E291I | 1.22 ± 0.56 |
| G163L | 0.386 ± 0.3 |
| V320L | 0.723 ± 0.1 |
| V320P | 1.56 ± 0.33 |
| V150T | 0.385 ± 0.47 |
| G346R | 1.56 ± 0.26 |
| G15T | 1.68 ± 0.17 |
| R405F | 1.59 ± 0.27 |
| R405T | 1.24 ± 0.43 |
| R405Y | 0.397 ± 0.55 |
| R405K | 1.33 ± 0.42 |
| G227W | 1.29 ± 0.15 |
| G52M | -0.407 ± 0.21 |
| K44Y | 1.46 ± 0.087 |
| K44D | 0.859 ± 0.084 |
| W332E | 1.61 ± 0.29 |
| W332Q | 1.55 ± 0.27 |
| W332P | 1.63 ± 0.24 |
| V4R | 1.32 ± 0.2 |
| A316F | 1.19 ± 0.28 |
| V116G | 0.415 ± 0.092 |

| Variant | STK11 functional score |
| --- | --- |
| S271G | 0.976 ± 0.3 |
| S271W | 0.443 ± 0.6 |
| K81I | 1.19 ± 0.12 |
| T186L | 1.54 ± 0.17 |
| T186M | 0.369 ± 0.12 |
| R425N | 1.62 ± 0.25 |
| R425S | 1.54 ± 0.39 |
| R425C | 1.27 ± 0.36 |
| C158G | 0.418 ± 0.096 |
| D343V | 1.21 ± 0.64 |
| D343Y | 1.29 ± 0.41 |
| D343P | 1.33 ± 0.15 |
| D343E | 1.45 ± 0.56 |
| S378D | 1.5 ± 0.17 |
| P222A | 0.83 ± 0.2 |
| L427I | 1.36 ± 0.29 |
| T244H | 0.0105 ± 0.12 |
| T244G | 0.014 ± 0.099 |
| L182W | 0.0906 ± 0.12 |
| L182H | -0.198 ± 0.33 |
| V236F | 1.21 ± 0.17 |
| D284G | 0.99 ± 0.21 |
| D284A | 0.668 ± 0.26 |
| M335K | 1.03 ± 0.7 |

| Variant | STK11 functional score |
| --- | --- |
| S240A | 0.891 ± 0.13 |
| L72N | 0.264 ± 0.095 |
| L72V | 1.16 ± 0.21 |
| E223D | 0.948 ± 0.23 |
| E317F | 0.542 ± 0.14 |
| E317N | 1.6 ± 0.3 |
| P149E | 1.52 ± 0.19 |
| P411D | 1.59 ± 0.15 |
| P411L | 1.16 ± 0.27 |
| I192V | 1.33 ± 0.42 |
| I192T | -0.0391 ± 0.45 |
| P321R | 1.26 ± 0.26 |
| C132K | 1.25 ± 0.49 |
| N94R | 1.37 ± 0.14 |
| Y49D | 0.131 ± 0.35 |
| V63E | 0.189 ± 0.41 |
| I300R | -0.144 ± 0.081 |
| I300V | 1.13 ± 0.28 |
| H107M | 0.523 ± 0.27 |
| H107V | 0.138 ± 0.077 |
| K96W | 0.729 ± 0.42 |
| K96L | 0.614 ± 0.26 |
| E293V | 1.02 ± 0.18 |
| E293L | 0.882 ± 0.13 |

| Variant | STK11 functional score |
| --- | --- |
| K287P | 0.105 ± 0.28 |
| K287R | 0.533 ± 0.14 |
| P319Q | 1.39 ± 0.2 |
| K312A | 1.25 ± 0.3 |
| D355P | 1.53 ± 0.2 |
| E256S | 1.36 ± 0.4 |
| E65H | 1.36 ± 0.21 |
| D162H | 0.6 ± 0.53 |
| D162E | 0.171 ± 0.15 |
| F264L | 1.1 ± 0.13 |
| M139N | 0.949 ± 0.081 |
| M139W | 1.27 ± 0.78 |
| M139K | 1.41 ± 0.18 |
| M139C | 1.29 ± 0.23 |
| S31W | 0.921 ± 0.11 |
| S31Y | 1.36 ± 0.18 |
| D68Q | 0.949 ± 0.48 |
| R40F | 1.3 ± 0.15 |
| V372T | 1.5 ± 0.21 |
| V372P | 1.48 ± 0.24 |
| P275Y | 0.943 ± 0.55 |
| P275K | 1.45 ± 0.32 |
| I360V | 1.49 ± 0.28 |
